Measured values taken from PMC2759774 (Molecular microbiology, 2009).

T1: MinC^C/MinD complex (MalE-MinC^C with MinD on phospholipid vesicles) (E. coli, UniProt P18196 116-231; P0AEZ3 1-270)
T1 sequence (looked up) 1: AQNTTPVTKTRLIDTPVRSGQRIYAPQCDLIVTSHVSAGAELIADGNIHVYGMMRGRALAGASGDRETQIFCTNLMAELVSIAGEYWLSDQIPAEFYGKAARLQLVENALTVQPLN
T1 sequence (looked up) 2: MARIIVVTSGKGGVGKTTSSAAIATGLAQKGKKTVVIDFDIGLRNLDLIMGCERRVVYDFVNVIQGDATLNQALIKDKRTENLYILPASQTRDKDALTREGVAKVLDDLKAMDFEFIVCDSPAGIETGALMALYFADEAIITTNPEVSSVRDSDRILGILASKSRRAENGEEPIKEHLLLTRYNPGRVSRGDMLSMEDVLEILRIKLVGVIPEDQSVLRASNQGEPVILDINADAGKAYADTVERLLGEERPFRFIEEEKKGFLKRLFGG

T2: MinD (E. coli, UniProt P0AEZ3 1-270)
T2 sequence (looked up): T1 sequence (looked up) 2

B1: WT FtsZ (natural protein, E. coli, UniProt P0A9A6 1-383, looked up)
chain: MFEPMELTNDAVIKVIGVGGGGGNAVEHMVRERIEGVEFFAVNTDAQALRKTAVGQTIQIGSGITKGLGAGANPEVGRNAADEDRDALRAALEGADMVFIAAGMGGGTGTGAAPVVAEVAKDLGILTVAVVTKPFNFEGKKRMAFAEQGITELSKHVDSLITIPNDKLLKVLGRGISLLDAFGAANDVLKGAVQGIAELITRPGLMNVDFADVRTVMSEMGYAMMGSGVASGEDRAEEAAEMAISSPLLEDIDLSGARGVLVNITAGFDLRLDEFETVGNTIRAFASDNATVVIGTSLDPDMNDELRVTVVATGIGMDKRPEITLVTNKQVQQPVMDRYQQHGMAPLTQEQKPVAKVVNDNAPQTAKEPDYLDIPAFLRKQAD
B2: MalE-MinC^C (domain or fragment, E. coli, UniProt P18196 116-231, looked up)
chain: T1 sequence (looked up) 1

Assays:
[1] = biological target: T1, MinC^C/MinD complex (MalE-MinC^C with …); assay: co-sedimentation
[2] = biological target: T2, MinD; assay: co-sedimentation

Binder	binding result [1]	binding result [2]
B1	binds	
B2		binds
